Results taken from article PMC3762362, “Three-color single molecule imaging shows WASP detachment from Arp2/3 complex triggers actin filament branch formation” (eLife, 2013).

Target: Rabbit muscle actin (monomeric) (rabbit, UniProt P68135 1-377)
Experiment: fluorescence polarisation; fluorescence anisotropy competition: 20 nM VCA-AF488 with rabbit muscle actin (150 nM in the legend, 200 nM in the methods) and increasing Cy3-diVCA construct; fit to a competition binding isotherm; 10 mM imidazole pH 7.0, 50 mM KCl, 1 mM EGTA, 1 mM MgCl2, 0.5 mM DTT, 0.1 mM ATP; room temperature
Conditions: both partners purified

Row | Kd [nM] | Binder
1 | 250 | Cy3-diVCA-A* (Δ486–488) (domain or fragment, Cy3 bis-maleimide (BMCy3) crosslinks the single Cys of the N-terminal extension of the two chains, extension appended at the N-terminus; its Cys reacts with the Cy3 bis-maleimide; human N-WASP VCA, residues 432-505, three-residue deletion in the A-region; Covalent dimer; same design as m1; also called A* mutant; source: E. coli BL21(DE3) T1R, purified (DEAE, Glutathione Sepharose, TEV cleavage, SOURCE 15Q, Superdex 200); not shown: GST, N-terminal, cleaved) CGGSGGSGGSGGSSGRDALLDQIRQGIQLKSVADGQESTPPTPAPTSGIVGALMEVMQKRSKAIHSSEDEDDEEDFEDDDEWED
2 | 340 | Cy3-diVCA wild-type (N-WASP VCA covalently dimerized with a Cy3 bis-maleimide) (domain or fragment, Cy3 bis-maleimide (BMCy3) crosslinks the single Cys of the N-terminal extension of the two chains, extension appended at the N-terminus; its Cys reacts with the Cy3 bis-maleimide; human N-WASP VCA, residues 432-505 (second WH2 motif (V) through the C-terminus); Covalent dimer; also called diVCA w.t; wild-type diVCA; source: E. coli BL21(DE3) T1R, purified (DEAE, Glutathione Sepharose, TEV cleavage, SOURCE 15Q, Superdex 200); not shown: GST, N-terminal, cleaved) CGGSGGSGGSGGSSGRDALLDQIRQGIQLKSVADGQESTPPTPAPTSGIVGALMEVMQKRSKAIHSSDEDEDEDDEEDFEDDDEWED
3 | 260 | Cy3-diVCA-C* (I467A) (domain or fragment, Cy3 bis-maleimide (BMCy3) crosslinks the single Cys of the N-terminal extension of the two chains, extension appended at the N-terminus; its Cys reacts with the Cy3 bis-maleimide; human N-WASP VCA, residues 432-505, mutated in the C-region; Covalent dimer; same design as m1; also called C* mutant; source: E. coli BL21(DE3) T1R, purified (DEAE, Glutathione Sepharose, TEV cleavage, SOURCE 15Q, Superdex 200); not shown: GST, N-terminal, cleaved) CGGSGGSGGSGGSSGRDALLDQIRQGIQLKSVADGQESTPPTPAPTSGAVGALMEVMQKRSKAIHSSDEDEDEDDEEDFEDDDEWED
4 | 660 | Cy3-diVCA-V* (D435S/A436D) (domain or fragment, Cy3 bis-maleimide (BMCy3) crosslinks the single Cys of the N-terminal extension of the two chains, extension appended at the N-terminus; its Cys reacts with the Cy3 bis-maleimide; human N-WASP VCA, residues 432-505, mutated in the V-region; Covalent dimer; same design as m1; also called V* mutant; source: E. coli BL21(DE3) T1R, purified (DEAE, Glutathione Sepharose, TEV cleavage, SOURCE 15Q, Superdex 200); not shown: GST, N-terminal, cleaved) CGGSGGSGGSGGSSGRSDLLDQIRQGIQLKSVADGQESTPPTPAPTSGIVGALMEVMQKRSKAIHSSDEDEDEDDEEDFEDDDEWED
